Experimental data published in the RNAGym collection of RNA variant scans (doi:10.1073/pnas.2313332121).

B1: TPR t1 (parent)
chain: GACCAAUCUGCCCUCAGAGCUCGAGAACAUCUUCGGAUGCAGAGGAGGCAGGCUUCGGUGGCGCGAUAGCGCCAACGUCCUCAACCUCCAAUGCAUCCCACCACAUGAUGAUGCCUGAAGAGCCUUGGUUUUUUG

Variants of: B1
Test: polymerase ribozyme fitness, log enrichment relative to wild type (log ratio); higher = more active; in vitro selection for triplet polymerase activity
Method in brief: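 The heterodimeric triplet polymerase ribozyme's subunits were each mutagenized into PCR-built libraries and transcribed. Every library was selected once, in triplicate, by annealing with a biotinylated primer, the partner subunit and triplets, incubating frozen at −7 °C, gel-excising extended constructs, capturing on streptavidin beads and running RT-PCR. Input and output libraries were Illumina-sequenced, with genotypes kept only at ≥10 input reads and ≥1 read per output. Fitness, from inverse-variance-weighted replicate averages, is the base-2 logarithm of genotype enrichment over wild-type enrichment.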

First: GACCAAUCUGCCCUCAGAGCUCGAGAACAUCUUCGGAUGCAGAGGAGGCAGGCUUCGGUGGCGCAAUAGCGUCAACGUCCUCAACCUCCAAUGCAUCCCACCACAUGAUGAUGCCUGAAGAGCCUUGGUUUUUUG
Second: GACCAAUCUGCCCUCAGAGCUCGAGAACAUCUUCGGAUGCAGAGGAGGCAGGCUUCGGUGGCGUGAUAGCGCCAACGUCCUCAACCUCCAAUGCAUCCCACCACAUGAUCAUGCCUGAAGAGCCUUGGUUUUUUG
The “polymerase ribozyme fitness (log ratio)” value of the first is lower: -6.47 for the first, -3.51 for the second.

First: GACCAAUCUGCCCUCAGAGCUCGAGAACAUCUUCGGAUGCAGAGGAGGCAGGCUUCGGUGGCGUGAUAGCGCCAACCUUCUCAACCUCCAAUGCAUCACACCACAUGAUGAUGCCUGAAGUGCCUUGGUUUUCUG
Second: GACCAAUCUGCCCUCAGAGCUCGAGAACAUCUUCGGAUGCAGAGGAGGCAGGCUUCGGUGGCGUGAUAGCGCCAACGUCCUCAACCUCCAAUGCAUCCCACCACAUGAUGAUGCCUGAAGAACCUUGGUUUUUUG
The “polymerase ribozyme fitness (log ratio)” value of the first is lower: -2.71 for the first, -0.796 for the second.

Compared with GACCAAUCUGCCCUCAGAGCUCGAGAACAUCUUCGGAUGCAGAGGAGGCAGGCUUCGGUGGCGUGAUAGCGCCAACGCCCUCCACCUCCAAUGCAUCCCCGCACAUGAUGAUGCCUGAAGAGCCUUGGGUUUUUG, GACCAAUCUGCCCUCAGAGCUCGAGAACAUCUUCGGAUGCAGAGGAGGCAGGCUUCGGUGGCGUGAUAGCGCCAACGUCCUCAACCUCCAAUGCAUCCCACCACAUGAUGAUUCCUGAAGAGCCUUGGUUUUUUG is higher in “polymerase ribozyme fitness (log ratio)” value: -3.92 for the first, -2.54 for the second.

Compared with GACCAAUCUGCCCUCAGAGCUCGAGAACAUCUUCGGAUGCAGAGGAGGCAGGCUUCGGUGGCGUGAUAGCGCCAACGUCCUCAACCUCCAAUGCAUCCCACCACAUGAUGAUCCCUGAAGAGCCUUGGUUUUUUG, GACCAAUCUGCCCUCAGAGCUCGAGAACAUCUUCGGAUGCAGAGGAGGCAGGCUUCGGUGGCGUGAUAGCGCCAACGUCCUCAACCUCCAAUGCAUCCCACCACAUGAUGACGCCUGAAGAGCCUUGGUUUUUUG is higher in “polymerase ribozyme fitness (log ratio)” value: -0.91 for the first, 0.999 for the second.

Going from GACCAAUCUGCCCUCAGAGCUCGAGAACAUCUUCGGAUGCAGAGGAGGCAGGCUUCGGUGGCGUGAUAGCGCCAACGUCCUCAACCUCCAAUGCAUCCCACCACAUGAUGAAGCCUGAAGAGCCUUGGUUUUUUG to GACCAAUCUGCCCUCAGAGCUCGAGAACAUCUUCGGAUGCAGAGGAGGCAGGCUUCGGUGGCGUGAUAGCGCCAACGUCCUCAACCUCCAAUGCAUCCCACCACAUGAUGAGGCCUGAAGAGCCUUGGUUUUUUG, the “polymerase ribozyme fitness (log ratio)” value falls from 0.346 to -0.0625.

Compared with GACCAAUCUGCCCUCAGAGCUCGAGAACAUCUUCGGAUGCAGAGGAGGCAGGCUUCGGUGGCGCAAUGGCGCCAACGUCCUCAACCUCCAAUGCAUCCCACCACAUGAUGAUGCCUGAAGUGGCUUGGUUUUUUG, GACCAAUCUGCCCUCAGAGCUCGAGAACAUCUUCGGAUGCAGAGGAGGCAGGCUUCGGUGGCGUGAUAGCGCCAACGUCCUCAACCUCCAAUGCAUCCCACCACAUGAUGAUGCCUGAAGAGCCUUUGUUUUUUG is higher in “polymerase ribozyme fitness (log ratio)” value: -5.3 for the first, -0.401 for the second.

Going from GACCAAUCUGCCCUCAGAGCUCGAGAACAUCUUCGGAUGCAGAGGAGGCAGGCUUCGGUGGCGUGAUAGCGCCAACGUCCUCAACCUCCAAUGCAUCCCACCACAUGAUGAUGCCUCAAGAGUCUUGGUUUUUUG to GACCAAUCUGCCCUCAGAGCUCGAGAACAUCUUCGGAUGCAGAGGAGGCAGGCUUCGGUGGCGCAAUAGCGCCAACGUCCUCAACCUCCAAUGCAUCCCACCACAUGAUGCUGCCUGAAGAGCCUUGGUUUUUUG, the “polymerase ribozyme fitness (log ratio)” value falls from -4.94 to -5.66.

GACCAAUCUGCCCUCAGAGCUCGAGAACAUCUUCGGAUGCAGAGGAGGCAGGCUUCGGUGGCGUGAUAGCGCCAACGACCUCAACCUCCAAUGCAUCCCACCACAUGAUGAUGCCUGAAGAGCCUUGGUUUUUUG and GACCAAUCUGCCCUCAGAGCUCGAGAACAUCUUCGGAUGCAGAGGAGGCAGGCUUCGGUGGCGUGAUAGCGCCAACGUCCUCAACCGCCAAUGCAUCCCACCACAUGAUGAUACCUGAAGAGCCUUGGUUUUUUG are within 0.2 log units of each other in “polymerase ribozyme fitness (log ratio)” value: -0.358 for the first, -0.485 for the second.

GACCAAUCUGCCCUCAGAGCUCGAGAACAUCUUCGGAUGCAGAGGAGGCAGGCUUCGGUGGCGCAAUAGCGCCAACGUCCUCAACCUGCAAUGCAUCCCACCACAUGAUGAUGCCUGAAGAGCCUUGGUUUUUUG and GACCAAUCUGCCCUCAGAGCUCGAGAACAUCUUCGGAUGCAGAGGAGGCAGGCUUCGGUGGCGUGAUAGCGCCAACGUCCUCAACCUCCAAUGCAUCCCACCACAUUAUGAUGCCUGAAGAGCCUUGGUUUUUUG are the same in “polymerase ribozyme fitness (log ratio)” value: -5.43 for the first, -5.43 for the second.

First: GACCAAUCUGCCCUCAGAGCUCGAGAACAUCUUCGGAUGCAGAGGAGGCAGGCUUCGGUGGCGUGAUAGCGCCAACGUCCUCAACCUCCAAUGCAUCCCACCACAUUAUGAUGCCUGAAGAGCCUUGGUCUUUUG
Second: GACCAAUCUGCCCUCAGAGCUCGAGAACAUCUUCGGAUGCAGAGGAGGCAGGCUUCGGUGGCGCAAUAGCGCCAACAUCCUCAACCUCCAAUGCAUCCCACCACAUGAUGAUGCCUGAAGAGCCUUGGUUUUUUG
The “polymerase ribozyme fitness (log ratio)” value of the first is lower: -6.04 for the first, -5.24 for the second.

GACCAAUCUGCCCUCAGAGCUCGAGAACAUCUUCGGAUGCAGAGGAGGCAGGCUUCGGUGGCGUGAUAGCGCCAACAUCCUCAACCUCCAAUGCAUCCCACCACAUGAUGAUGCCUGAAGAGCCUUGGUUUUUUG and GACCAAUCUGCCCUCAGAGCUCGAGAACAUCUUCGGAUGCAGAGGAGGCAGGCUUCGGUGGCGUGAUAGCGCCAACUUCCUCAACCUCCAAUGCAUCCCACCACAUGAUGAUGCCUGAAGAGCCUUGGUUUUUUG are within 0.2 log units of each other in “polymerase ribozyme fitness (log ratio)” value: -0.391 for the first, -0.465 for the second.

Compared with GACCAAUCUGCCCUCAGAGCUCGAGAACAUCUUCGGAUGCAGAGGAGGCAGGCUUCGGUGGCGUGAUAGCGCCAACGUCCUCAACCUCCAAUGCAUCCCACCACAUGAUGAUGCCUGAAGAGCCUUGGGUUUUUG, GACCAAUCUGCCCUCAGAGCUCGAGAACAUCUUCGGAUGCAGAGGAGGCAGGCUUCGGUGGCGUGAUAGCGCCAACGUCCUCAACCUCCAAUGCAUCCCACCACAUGAUGAUGCCUGAAGAGCCUUGGAUUUUUG is higher in “polymerase ribozyme fitness (log ratio)” value: -1.46 for the first, -0.991 for the second.

Going from GACCAAUCUGCCCUCAGAGCUCGAGAACAUCUUCGGAUGCAGAGGAGGCAGGCUUCGGUGGCGUGAUAGCGCCAACGUCCUCAACCUCCAAUGCAUCCCACCACAUGAUGAUGCCUGAAGAGCCUUGGCUUUUUG to GACCAAUCUGCCCUCAGAGCUCGAGAACAUCUUCGGAUGCAGAGGAGGCAGGCUUCGGUGGCGUGAUAUCGCCAACGUCCUCAACCUCCAAUGCAUCCCACCACAUGAUGAUGCCUGAAGAGCCUUGCUUUUUUG, the “polymerase ribozyme fitness (log ratio)” value falls from -0.708 to -3.93.

First: GACCAAUCUGCCCUCAGAGCUCGAGAACAUCUUCGGAUGCAGAGGAGGCAGGCUUCGGUGGCGUGAUAGCGCCAACGUCCUCAACCUCCAAUGCAUCCCACCACAUGAUGAUGCCUGAACAGCCUUGGUUUUUUG
Second: GACCAAUCUGCCCUCAGAGCUCGAGAACAUCUUCGGAUGCAGAGGAGGCAGGCUUCGGUGGCGUGAUAGCGCCAACAUCAUCAACCUCCAACGCAUCCCACCACAUGAUGAUGCCUGAAGAGCCUUGGUUUUUUG
The “polymerase ribozyme fitness (log ratio)” value of the first is higher: 0.769 for the first, -5.1 for the second.

Going from GACCAAUCUGCCCUCAGAGCUCGAGAACAUCUUCGGAUGCAGAGGAGGCAGGCUUCGGUGGCGUGAUAGCGCCAACGUCCUCAACCUCCAAUGCAUCCCACCACAUGAUGAUGCCUGAAGAGCCUUGGUGUUUUG to GACCAAUCUGCCCUCAGAGCUCGAGAACAUCUUCGGAUGCAGAGGAGGCAGGCUUCGGUGGCGUGAUAGCGCCAACGUCCUCAACCUCCAAUGCAACCCACCACAUGAUGAUGCCUGAAGAGCCUUGGUUUUUUG, the “polymerase ribozyme fitness (log ratio)” value falls from -0.668 to -1.23.

Compared with GACCAAUCUGCCCUCAGAGCUCGAGAACAUCUUCGGAUGCAGAGGAGGCAGGCUUCGGUGGCGUGAUAGCGCCAACGCCCUCAACCUCCAAUGCAUCCCACCAUAUGAUGAUGCCUGAAGAGCCUUGGUUUUUUG, GACCAAUCUGCCCUCAGAGCUCGAGAACAUCUUCGGAUGCAGAGGAGGCAGGCUUCGGUGGCGUGAUAGCGCCAACGUCCUCAACCUCCAACGCAUCCCACCACAUGAUGAUGCCUGAAGAGCCUUGGUUUUUUG is lower in “polymerase ribozyme fitness (log ratio)” value: 0.13 for the first, -1.23 for the second.

First: GACCAAUCUGCCCUCAGAGCUCGAGAACAUCUUCGGAUGCAGAGGAGGCAGGCUUCGGUGGCGUGAUAGCGCCAACGUCCUCAACCUCCAAGGCAUCCCACCACAUGAUGAUGCCUGAAGAGCCUUGGUUUUUUG
Second: GACCAAUCUGCCCUCAGAGCUCGAGAACAUCUUCGGAUGCAGAGGAGGCAGGCUUCGGUGGCGUGAUAGCGCCAACGUCCUCAACCUCCAAUCCAUCCCACCACAUGAUGAUGCCUGAAGAGCCUUGGUUUUUUG
The “polymerase ribozyme fitness (log ratio)” value of the first is lower: -3.31 for the first, -0.827 for the second.

Compared with GACCAAUCUGCCCUCAGAGCUCGAGAACAUCUUCGGAUGCAGAGGAGGCAGGCUUCGGUGGCGCAAUAACGCCAACGUCCUCAACCUCCAAUGCAUCCCACCACAUGAUGACGCCUGAAGAGCCUUGGUUUUUUG, GACCAAUCUGCCCUCAGAGCUCGAGAACAUCUUCGGAUGCAGAGGAGGCAGGCUUCGGUGGCGUGAUAGCUCCAACGUCCUCAACCUCCAAUGCAUCCCACCACAUGAUGAUGCCUGAAGAGCCUUGGUUUUUUG is higher in “polymerase ribozyme fitness (log ratio)” value: -4.9 for the first, -2.96 for the second.

Going from GACCAAUCUGCCCUCAGAGCUCGAGAACAUCUUCGGAUGCAGAGGAGGCAGGCUUCGGUGGCGUGAUAGCGCCAACGUCCUCAACCUCCAAUGCAUCCCACCACAUGAUGAUGCCUCAAGAGUCAUGGUUUUUUG to GACCAAUCUGCCCUCAGAGCUCGAGAACAUCUUCGGAUGCAGAGGAGGCAGGCUUCGGUGGCGUAAUAGCGCCAACGUCCUCAACCUCCAAUGCAUCCCACCACGUGAUGAUACCUGAAGAGCCUUGGUUUUUUG, the “polymerase ribozyme fitness (log ratio)” value falls from -6.02 to -6.73.

First: GACCAAUCUGCCCUCAGAGCUCGAGAACAUCUUCGGAUGCAGAGGAGGCAGGCUUCGGUGGCGUGAUAGCGCCAACGUCCUCAACCUCCAAUGCAUCCCACCACAUGAUGAUGCCGGAAGAGCCUUGGUUUUUUG
Second: GACCAAUCUGCCCUCAGAGCUCGAGAACAUCUUCGGAUGCAGAGGAGGCAGGCUUCGGUGGCGUGAUAGCGCCAACGUCCUCAACCUCCAAUGCAUCCCACCACAUGAUGAUGCCUGAAGAGCCUUGGUUAUUUG
The “polymerase ribozyme fitness (log ratio)” value of the first is lower: -1.88 for the first, 0.0289 for the second.

Going from GACCAAUCUGCCCUCAGAGCUCGAGAACAUCUUCGGAUGCAGAGGAGGCAGGCUUCGGUGGCGUGAUAGCGCCAACGUCCGCAACCUCCAAUGCAUCCCACCACAUGAUGAUGCCUGAAGAGCCUUGGUUUUUUG to GACCAAUCUGCCCUCAGAGCUCGAGAACAUCUUCGGAUGCAGAGGAGGCAGGCUUCGGUGGCGUGAUAGCGCCAACGUCCUCAACCUCCAAUACAACCCACCACAUGAUGAUGCCUGAAGAGCCUGGGUUUUUUG, the “polymerase ribozyme fitness (log ratio)” value falls from -4.28 to -5.25.
